Key:
MDA-MB-231 cells = experiment: Binding of labeled peptides to MDA-MB-231 cells at different pH values; type: cell-based, human; conditions: n=3
Protocol: a. When MDA-MB-231 cells grew to more than 90% confluence, they were digested. The cell concentration was adjusted to approximately 1.0 × 10^5 cells/mL, and 1 mL of the cell solution was added to each well of a 12-well plate and cultured overnight in a 37°C cell incubator.
b. The medium was discarded, and the cells were washed with PBS twice. Then, 2 mL of fresh medium and 37 kBq ^99mTc-pHLIP (Var7) or ^99mTc-kVar7 (20-30 μL) were added to each well. We adjusted the pH values of the wells to four levels (pH 7.4, 7.0, 6.5, and 6.0).
c. After culturing for 30, 60, 90, 120, and 180 min, the supernatant was aspirated into a supernatant tube, and each well was washed two times with PBS at the corresponding pH (7.4, 7.0, 6.5, or 6.0). The cleaning solution was also added into the supernatant tube. The cells were digested fully with 0.25% trypsin, and the cell suspension was aspirated into a cell tube and washed twice with PBS. The cleaning solution was also added to the cell tube. A γ counter was applied to measure the radioactivity count of the cell tube (B) and supernatant tube (F). The cell-binding fraction of ^99mTc-pHLIP (Var7) or ^99mTc-kVar7 = B/(B+F) × 100%.

[1] = type: in vitro ADME, human
Protocol: (§1) The radiochemical purity of ^99mTc-pHLIP (Var7) and ^99mTc-kVar7 was determined by thin-layer chromatography (TLC). A thin polyamide layer was used as the stationary phase, and acetonitrile was used as the developing solvent. A sufficient amount of the labeled product was aspirated through a capillary pipette and spotted at the origin of the thin polyamide layer. The thin polyamide layer was air-dried and vertically placed in a test tube with developing solvent. The saturated thin polyamide layer was removed, dried, and placed on the TLC scanner for testing.
(§2) ^99mTc-pHLIP (Var7) and ^99mTc-kVar7 were placed in PBS at room temperature (25°C) and in fresh human serum at 37°C. Samples were taken to test the radiochemical purity at 1, 4, 6, and 24 h after labeling.

[2] = In vitro stability in PBS at room temperature (radiochemical purity by TLC); type: physicochemical; conditions: room temperature (25°C), 24 h after labeling, TLC on polyamide layer with acetonitrile
Protocol: as §1, §2

MDA-MB-231 tumors [3] = type: in vivo, BALB/c nude mice; conditions: 1, 2, 4, and 6 h after tail vein injection of about 11.1 MBq/200 μL, n = 3
Protocol: (§3) Animal experiments were approved by the ethics committee of Qingdao University, and the management of animals followed ethical standards. We built an MDA-MB-231 tumor model using four- to- five-week-old female BALB/c nude mice (Shanghai SLAC Laboratory Animal Co., Ltd, China). To do so, 0.1 mL of a cell suspension (50 µL PBS + 50 µL Matrigel) containing 1 × 10^6 MDA-MB-231 cells was subcutaneously inoculated into the right axilla of each mouse.
When tumor diameters reached 0.8–1.0 cm, six tumor-bearing nude mice were selected for imaging. Each nude mouse was injected with approximately 11.1 MBq/200 μL ^99mTc-pHLIP (Var7) or ^99mTc-kVar7 through the tail vein. The tumor-bearing mice were anesthetized with 2% isoflurane at 1 h, 2 h, 4 h, and 6 h after injection and were fixed on the imaging bed of a small-animal SPECT/CT imaging system in the prone position. A pinhole collimator was applied. The main parameters were a matrix size of 256 × 256, magnification power of 1.45, and acquisition time at each time point of 10 min.

MDA-MB-231 tumors [4] = system: MDA-MB-231 tumors; parameters: species or system BALB/c nude mice; conditions: mouse, in vivo
Protocol: as §3
When tumor diameters reached 0.8–1.0 cm, 24 tumor-bearing nude mice were selected for an in vivo biodistribution experiment. Each nude mouse was injected with approximately 1480 kBq/200 μL ^99mTc-pHLIP (Var7) or ^99mTc-kVar7 through the tail vein. The mice were sacrificed humanely 1 h, 2 h, 4 h, and 6 h after injection, and their tissues and organs, such as the brain, heart, lung, liver, kidney, stomach, small intestine, blood, muscle, bone, and tumor, were weighed and measured for their radioactivity count. The results are expressed as the percentage of injected dose per gram of tissue (%ID/g).

Substance | binding fraction to MDA-MB-231 cells (MDA-MB-231 cells; all tested pH values (6.0, 6.5, 7.0, and 7.4), each time point (30, 60, 90, 120, and 180 min)) | radiochemical purity in fresh human serum at 24 h [1] [%] | radiochemical purity in PBS at 24 h [2] [%] | SPECT/CT imaging of tumors (MDA-MB-231 tumors [3]) | blood clearance (MDA-MB-231 tumors [4]) | tumor/nontumor (T/NT) ratio, trend over time (MDA-MB-231 tumors [4]) | binding fraction to MDA-MB-231 cells (MDA-MB-231 cells; pH 6.0, 180 min, 37 kBq per well, γ counter, B/(B+F) × 100%, mean ± SD) [%] | binding fraction to MDA-MB-231 cells (MDA-MB-231 cells; pH 6.5, 180 min, 37 kBq per well, γ counter, B/(B+F) × 100%, mean ± SD) [%] | binding fraction to MDA-MB-231 cells (MDA-MB-231 cells; pH 7.0, 180 min, 37 kBq per well, γ counter, B/(B+F) × 100%, mean ± SD) [%] | binding fraction to MDA-MB-231 cells (MDA-MB-231 cells; pH 7.4, each time point (30, 60, 90, 120, and 180 min))
GaGG-GABA-ACEEQNPWARYLKWLFPTKTLLLKL-NH2 [^99mTc-kVar7, technetium-99m-labeled control peptide kVar7, pH-insensitive, with N4 chelating group and GABA spacer, reference compound] | remained low | > 96 | > 99 | not imaged | slow blood clearance | no significant increasing trend |  |  |  | 
GaGG-GABA-ACEEQNPWARYLEWLFPTETLLLEL-NH2 [^99mTc-pHLIP (Var7)] |  | > 96 | > 99 | clearly imaged at each time point | slow blood clearance | increased over time | 3.33 ± 0.12 | 3.02 ± 0.04 | 2.87 ± 0.03 | remained low

— paper PMC9069674, “Synthesis and Evaluation of Technetium-99m-Labeled pH (Low) Insertion Peptide Variant 7 for Early Diagnosis of MDA-MB-231 Triple-Negative Breast Cancer by Targeting the Tumor Microenvironment” (Frontiers in Oncology, 2022)
